Target: recombinant human adenovirus type 5 (E1 region replaced by lacZ cDNA), whole virus particles (human adenovirus type 5) (UniProt P04133)

Q: Which binding of the virus-hFX complex to heparan sulfate-coated plates (attached particles by real-time PCR), enhancement over virus alone; hFX at 0.008 and 0.05 mg/ml does the source give for “human coagulation factor X (zymogen) (natural protein)” here?
A: 7.5 times
